The target in the series is T1, Long S6 substrate peptide (32 amino-acid).
T1 chain: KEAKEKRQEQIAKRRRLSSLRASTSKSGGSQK

B1: Human recombinant Rho kinase (ROKα/ROCK-II, amino acids 11-552), human active, catalog #14-451, Upstate USA, Inc. (protein)
chain: PGAPETAPGDGAGASRQRKLEALIRDPRSPINVESLLDGLNSLVLDLDFPALRKNKNIDNFLNRYEKIVKKIRGLQMKAEDYDVVKVIGRGAFGEVQLVRHKASQKVYAMKLLSKFEMIKRSDSAFFWEERDIMAFANSPWVVQLFYAFQDDRYLYMVMEYMPGGDLVNLMSNYDVPEKWAKFYTAEVVLALDAIHSMGLIHRDVKPDNMLLDKHGHLKLADFGTCMKMDETGMVHCDTAVGTPDYISPEVLKSQGGDGFYGRECDWWSVGVFLYEMLVGDTPFYADSLVGTYSKIMDHKNSLCFPEDAEISKHAKNLICAFLTDREVRLGRNGVEEIRQHPFFKNDQWHWDNIRETAAPVVPELSSDIDSSNFDDIEDDKGDVETFPIPKAFVGNQLPFIGFTYYRENLLLSDSPSCRENDSIQSRKNEESQEIQKKLYTLEEHLSNEMQAKEELEQKCKSVNTRLEKTAKELEEEITLRKSVESALRQLEREKALLQHKNAEYQRKADHEADKKRNLENDVNSLKDQLEDLKKRNQNSQI
On to B1, for which the “Maximum DPMs found in phosphorylated substrate (i.e. product)” value is given as 52,557±2,058 (n=14) (0.22% of total added DPMs) and the “Net fold phosphorylation of substrate (33P incorporation, filter mat kinase assay)” value is listed as 4.4-fold above basal blanks (n=14 experiments; 42 separate assay determinations).

For the origin of these results see patent publication US20060115870.
